Results as given in patent publication CN111471109A (SHENZHEN INST OF ADV TECH CAS, dated 2020).

Biological target: T1, FGFR4蛋白 (成纤维细胞生长因子受体4, recombinant protein antigen bought from 义翘神州 / Sino Biological) (human, UniProt P22455 22-369, limits assumed)
T1 construct: In the Western blot the protein was boiled and denatured; also called FGFR4蛋白抗原; fibroblast growth factor receptor 4
T1 sequence (looked up): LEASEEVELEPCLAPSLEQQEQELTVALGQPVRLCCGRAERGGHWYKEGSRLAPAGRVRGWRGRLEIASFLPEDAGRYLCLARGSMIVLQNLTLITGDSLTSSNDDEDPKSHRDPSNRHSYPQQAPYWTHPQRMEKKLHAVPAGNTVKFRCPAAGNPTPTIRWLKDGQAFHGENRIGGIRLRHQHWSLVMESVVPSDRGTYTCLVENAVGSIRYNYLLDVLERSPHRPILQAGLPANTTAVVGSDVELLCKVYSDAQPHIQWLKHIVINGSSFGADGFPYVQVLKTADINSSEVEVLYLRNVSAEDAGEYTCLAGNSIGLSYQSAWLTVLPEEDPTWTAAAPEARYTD
Assay: BLI (OCTET K2), FGFR4 protein 10 μg/ml loaded on AHC (Anti-hIgG Fc Capture) sensors, 6G12F5 in solution at 8.84-566.7 nM

Kd: < 1 pM
B1: 6G12F5抗体 (抗FGFR4的单克隆抗体6G12F5) (antibody, V domains shown)
VH: EVMLVESGGGLVKPGGSLKLSCAVSGFTFRNYAMSWVRQSPEKRLEWVAEISNGGRYIYYPDTVTGRFTISRDNAKNTLYLEMSSLRSEDTAMYYCVRGGEKTSGYVWFAYWGEGTLVTVG
VL: DIQMTQTPASLSASVEETVTITCRASENIYSYLAWYQQKQGRSPQLLLYNAKTLAEGVPSRFSGSGSGTQFSLKINSLQPEDFGIYYCQHFSGTPYTFGEGTKLEIT
notes: Mouse hybridoma monoclonal antibody (BALB/c), purified from ascites on Protein G and detected with anti-mouse IgG; also called FGFR4单克隆抗体; FGFR4抗体
